From patent US6683162B2, “Targeted alpha particle therapy using actinium-255 conjugates” (Sloan Kettering Institute of Cancer Research, priority 2000, dated 2004)

How the values were obtained:
Daudi lymphoma cells = test: In vivo efficacy against disseminated Daudi lymphoma; design: species or system mouse; conditions: irrelevant control, day 1
Procedure: Daudi lymphoma cells are disseminated into 8-12 week old female Scid mice via an intravenous (i.v.) injection of 5E6 Daudi tumor cells in the tail vein; mice experience a 100% tumor take rate in the model (20). In this lymphoma therapy experiment mice are treated 1 day post-tumor dissemination via intravenous injection. Animals are monitored for signs of illness and hind leg paralysis or inability to breathe or ambulate at which time they are sacrificed.
In the first experiment with this disseminated model, mice are treated 1 day post-tumor dissemination with a single dose of labeled specific [225Ac]B4 at three different dose levels, irrelevant control [225Ac]HuM195 at two dose levels, or a mass of unlabeled B4 matching the antibody mass dose administered in the highest dose level radiolabeled groups. Control groups receiving the irrelevant [225Ac]HuM195 have median survival times from xenograft of 43 days and 36 days. Mice receiving 0.003 mg unlabeled B4 per mouse have a median survival time of 57 days from xenograft. The mice receiving a single injection of [225Ac]B4 show dose-related increases in median survival times from xenograft to 165, 137 and 99 days, respectively. The dose response of [225Ac]B4 is significant with P=0.05. […]

[1] = system: antigen negative cells (Daudi); test: Cell based immunoreactivity assay, antigen negative cells; assay type: binding; conditions: on ice
Procedure: (§1) A cell based immunoreactivity assay (binding of labeled antibody to antigen excess) was used to determine the percentage of HuM195 that retained its immunoreactivity after conjugation and purification. The assay was conducted with antigen positive cells (HL60, available from American Tissue Culture Collection [ATCC]) and antigen negative cells (Daudi, ATCC).
(§2) The cells were centrifuged, the supernatant removed and the cells resuspended to a density of 10^8 cells/ml in 2% w/v bovine serum albumin in phosphate buffered saline, pH 7.2 (PBS). Aliquots of cell suspension ([…]) were transferred to microcentrifuge tubes placed on ice to which purified ^225Ac-HuM195-DOTA (3 ng) was added. The cell suspensions were incubated for 30 min, centrifuged and the supernatant containing any unbound ^225Ac-HuM195-DOTA was transferred to a second microcentrifuge tube of cell suspension. The second tube was incubated on ice for 30 min. The first cell pellets were washed with PBS and the cells and washes saved for γ emission counting. The second set of cell suspensions were centrifuged, the supernatant removed and the pellets were washed with PBS. The set of supernate, cell pellets and washes were saved for counting. The percentage of radioactivity that was associated with the cells was then determined.

LNCaP tumor xenograft = test: Biodistribution of 225Ac/221Fr/213Bi in LNCaP tumor bearing mice; conditions: for A2(o)/A2(eq) Bi-213 at sacrifice time / A2(o)/A2(eq) Fr-221 at sacrifice time / % ID/g Ac-225 / % ID/g Bi-213 / % ID/g Fr-221: 48 hour, mean; for A2(o)/A2(eq) Bi-213 at sacrifice time / A2(o)/A2(eq) Fr-221 at sacrifice time: daughter/parent ratio
Procedure: An [225Ac]DOTA-J591 biodistribution experiment was carried-out using a male athymic nude (8-12 weeks old) mouse (Taconic, Germantown, N.Y.) model with an i.m. xenograft of 5E6 LNCaP tumor cells in Matrigel (Becton Dickinson Labware, Bedford Mass.) implanted in the right hind leg. The tumors were allowed to grow for 4 weeks and then the mice were separated into two groups (n=12 per group). One group received approximately 0.55 mL of [225Ac]DOTA-J591 (350 nCi ^225Ac on 0.0035 mg J591) and the other group received the irrelevant control [225Ac]DOTA-HuM195 (350 nCi 225Ac on 0.0026 mg HuM195) via i.p. injection. Three to four animals from each group were sacrificed at 48 h and 72 h post injection. Blood and tissue samples including: heart, kidneys, lung, spleen, liver, stomach, intestine, and tumor were harvested, weighed and counted using a Packard Cobra Gamma Counter (Packard Instrument Co., Inc., Meriden, Conn.) with two energy windows, ^221Fr (185-250 KeV window) and ^213Bi (360-480 window). The percent of the injected dose per gram of tissue (% ID/g) was determined by measuring the activity in […] aliquots of each respective [^225Ac]mAb injectate in triplicate. After the initial 48 h time point data was analyzed, attention was focused on collection of blood, tumor, heart, kidney and small intestine samples as the need to rapidly sacrifice, harvest, and count was necessary in order to measure ^221Fr in the samples.
Using known methods (28), values of A2(o)/A2(eq) were determined for each tissue sample.

HL60 cells = test: In vitro internalization of 225Ac-HuM195-DOTA; assay type: cell-based, human; conditions: 37° C., in 5 hours
Procedure: The internalizing ability of the purified ^225Ac-HuM195-DOTA was tested with HL60 cells. The cells were washed twice with complete media and then incubated for 20 min on ice in complete media containing 2% rabbit serum. The cells were washed twice with ice cold complete media and then resuspended in 5 ml of complete media at a density of 5×10^6 cells/ml. After placing the cell suspension on ice purified ^225Ac-HuM195-DOTA (15 ng) was added. After mixing a sample of the sample of the cell suspension as taken and the rest of the cell suspension was placed into a 37° C. incubator. At various time points samples of the cell suspensions were taken. The samples were centrifuged, the supernatant removed and the cells washed twice with ice cold PBS. Stripping buffer (50 mM glycine, 150 mM NaCl, pH 2.8) was added to the cells and allowed to incubate for 10 min at room temperature. The cells were centrifuged and the supernatant drawn off and saved for counting. The cell pellet was washed once with PBS and both the cell pellet and wash were saved for counting.

[2] = system: antigen positive cells (HL60); test: Cell based immunoreactivity assay, antigen positive cells; assay type: binding, human; conditions: HL60, antigen excess, on ice
Procedure: as §1, §2

Substance: 225Ac-HuM195-DOTA
- median survival time from xenograft (Daudi lymphoma cells; first-named of two dose levels (5550 Bq per FIG. 8A, order assumed)): 43 days
- median survival time from xenograft (Daudi lymphoma cells; second-named of two dose levels (1850 Bq per FIG. 8A, order assumed)): 36 days
- activity retained by the cells (immunoreactivity) [1]: 2%
- 225Ac uptake in the liver (LNCaP tumor xenograft; 48 h, LNCaP tumor bearing mice, i.p.): less than 8%
- A2(o)/A2(eq) Bi-213 at sacrifice time (LNCaP tumor xenograft; Blood): 0.04
- A2(o)/A2(eq) Fr-221 at sacrifice time (LNCaP tumor xenograft; Blood): 0.13
- % ID/g Ac-225 (LNCaP tumor xenograft; Blood): 13.5 % ID/g
- % ID/g Bi-213 (LNCaP tumor xenograft; Blood): 0.55 % ID/g
- % ID/g Fr-221 (LNCaP tumor xenograft; Blood): 0.18 % ID/g
- A2(o)/A2(eq) Bi-213 at sacrifice time (LNCaP tumor xenograft; Heart): 0.99
- A2(o)/A2(eq) Fr-221 at sacrifice time (LNCaP tumor xenograft; Heart): 1.6
- % ID/g Ac-225 (LNCaP tumor xenograft; Heart): 3.9 % ID/g
- % ID/g Bi-213 (LNCaP tumor xenograft; Heart): 3.9 % ID/g
- % ID/g Fr-221 (LNCaP tumor xenograft; Heart): 6.1 % ID/g
- A2(o)/A2(eq) Bi-213 at sacrifice time (LNCaP tumor xenograft; Kidneys): 10.0
- A2(o)/A2(eq) Fr-221 at sacrifice time (LNCaP tumor xenograft; Kidneys): 16.8
- % ID/g Ac-225 (LNCaP tumor xenograft; Kidneys): 4.7 % ID/g
- % ID/g Bi-213 (LNCaP tumor xenograft; Kidneys): 46.5 % ID/g
- % ID/g Fr-221 (LNCaP tumor xenograft; Kidneys): 72.8 % ID/g
- A2(o)/A2(eq) Bi-213 at sacrifice time (LNCaP tumor xenograft; Liver): 0.87
- A2(o)/A2(eq) Fr-221 at sacrifice time (LNCaP tumor xenograft; Liver): 0.70
- % ID/g Ac-225 (LNCaP tumor xenograft; Liver): 7.7 % ID/g
- % ID/g Bi-213 (LNCaP tumor xenograft; Liver): 6.5 % ID/g
- % ID/g Fr-221 (LNCaP tumor xenograft; Liver): 5.5 % ID/g
- A2(o)/A2(eq) Bi-213 at sacrifice time (LNCaP tumor xenograft; Sm. Int.): 4.0
- A2(o)/A2(eq) Fr-221 at sacrifice time (LNCaP tumor xenograft; Sm. Int.): 13.3
- % ID/g Ac-225 (LNCaP tumor xenograft; Sm. Int.): 1.6 % ID/g
- % ID/g Bi-213 (LNCaP tumor xenograft; Sm. Int.): 6.3 % ID/g
- % ID/g Fr-221 (LNCaP tumor xenograft; Sm. Int.): 18.7 % ID/g
- A2(o)/A2(eq) Bi-213 at sacrifice time (LNCaP tumor xenograft; Tumor): 0.87
- A2(o)/A2(eq) Fr-221 at sacrifice time (LNCaP tumor xenograft; Tumor): 0.83
- % ID/g Ac-225 (LNCaP tumor xenograft; Tumor): 1.60 % ID/g
- % ID/g Bi-213 (LNCaP tumor xenograft; Tumor): 5.0 % ID/g
- % ID/g Fr-221 (LNCaP tumor xenograft; Tumor): 4.6 % ID/g
- activity internalized (HL60 cells): 50%
- activity associated with the cells (immunoreactivity) [2]: 74%
